# Measurements from paper PMC9376891 (Nature Communications, 2022).
# B1: SARS-CoV-2 ORF6-D61A (peptide)
# peptide: YSQLDEEQPMEIA
# notes: source: synthetic peptide
# B2: SARS-CoV-2 ORF6-E59A (peptide)
# peptide: YSQLDEEQPMAID
# notes: source: synthetic peptide
# B3: SARS-CoV-2 ORF6-M58L (peptide)
# peptide: YSQLDEEQPLEID
# notes: source: synthetic peptide
# B4: SARS-CoV-2 ORF6-P57A (peptide)
# peptide: YSQLDEEQAMEID
# notes: source: synthetic peptide
# B5: SARS-CoV-2 ORF6-I60A (peptide)
# peptide: YSQLDEEQPMEAD
# notes: source: synthetic peptide
# B6: SARS-CoV-2 ORF6 C3 peptide I60A (peptide)
# peptide: YSQLDEEQPMEAD
# notes: source: synthetic peptide
# B7: SARS-CoV-2 ORF6 C3 peptide M58L (peptide)
# peptide: YSQLDEEQPLEID
# notes: source: synthetic peptide
# B8: SARS-CoV-2 ORF6 C3 peptide Q56E (peptide)
# peptide: YSQLDEEEPMEID
# notes: source: synthetic peptide
# B9: SARS-CoV-2 ORF6-D53A (peptide)
# peptide: YSQLAEEQPMEID
# notes: source: synthetic peptide
# B10: SARS-CoV-2 ORF6-E55A (peptide)
# peptide: YSQLDEAQPMEID
# notes: source: synthetic peptide
# B11: SARS-CoV-2 ORF6-Q56E (peptide)
# peptide: YSQLDEEEPMEID
# notes: source: synthetic peptide
# B12: SARS-CoV-2 ORF6-E54A (peptide)
# peptide: YSQLDAEQPMEID
# notes: source: synthetic peptide
# Target: T1, Rae1(31-368)-Nup98(157-213) heterodimer (human, UniProt P78406 31-368; P52948 157-213)
# T1 construct: also called Rae1-Nup98; Rae1-Nup98 complex
# Experiment: ITC
# Conditions: both partners purified
# T1 sequence (P78406 31-368, chain 1 of 2): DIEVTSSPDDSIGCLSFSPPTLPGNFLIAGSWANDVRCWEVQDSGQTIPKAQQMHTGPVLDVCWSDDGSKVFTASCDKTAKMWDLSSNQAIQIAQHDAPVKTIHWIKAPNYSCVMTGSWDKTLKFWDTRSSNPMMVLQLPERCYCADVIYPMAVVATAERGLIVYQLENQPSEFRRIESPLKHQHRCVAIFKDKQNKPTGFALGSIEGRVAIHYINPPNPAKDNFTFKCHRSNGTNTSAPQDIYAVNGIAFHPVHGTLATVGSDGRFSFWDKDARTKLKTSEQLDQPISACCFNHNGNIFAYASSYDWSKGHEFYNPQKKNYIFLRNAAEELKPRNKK
# T1 sequence (P52948 157-213, chain 2 of 2): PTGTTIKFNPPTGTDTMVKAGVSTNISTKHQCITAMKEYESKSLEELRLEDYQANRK
Binder,Ka [M⁻¹],Kd [nM],stoichiometry N
B1,361000,2770,0.76
B2,606000,1650,0.68
B3,96400,–,1
B4,1.12e+06,890,2.34
B5,238000,4200,0.68

# Target: T2, Rae1(31-368)-Nup98(157-213) heterodimer (human, UniProt P78406 31-368; P52948 157-213)
# T2 construct: also called Rae1-Nup98; Rae1-Nup98 complex
# Experiment: ITC
# Conditions: both partners purified
# T2 sequence (P78406 31-368, chain 1 of 2): as the sequence (P78406 31-368, chain 1 of 2) above
# T2 sequence (P52948 157-213, chain 2 of 2): as the sequence (P52948 157-213, chain 2 of 2) above
Binder,fold reduction of binding affinity against SARS-CoV-2 ORF6 C3 [fold],Kd [nM],fold increase of binding affinity against SARS-CoV-2 ORF6 C3 [fold]
B6,~17.5,–,–
B7,–,10400,–
B8,–,–,~6

# Target: T1, Rae1(31-368)-Nup98(157-213) heterodimer
# Experiment: ITC
# Conditions: both partners purified
# Remark: another data set of the same source
Binder,Ka [M⁻¹],Kd [nM],stoichiometry N
B9,863000,1150,0.71
B10,1.75e+06,570,0.65
B11,2.08e+07,40,0.781
B12,1.72e+06,580,0.59
